According to patent publication US20220259325A1:

Tests used:
[1] = molecular target: human MASP-1 (protein in human serum) (human)
[2] = molecular target: human MASP-2 (protein in human serum or plasma) (human)

Sequence of human MASP-1 (protein in human serum) (human) (chain, as listed by the source): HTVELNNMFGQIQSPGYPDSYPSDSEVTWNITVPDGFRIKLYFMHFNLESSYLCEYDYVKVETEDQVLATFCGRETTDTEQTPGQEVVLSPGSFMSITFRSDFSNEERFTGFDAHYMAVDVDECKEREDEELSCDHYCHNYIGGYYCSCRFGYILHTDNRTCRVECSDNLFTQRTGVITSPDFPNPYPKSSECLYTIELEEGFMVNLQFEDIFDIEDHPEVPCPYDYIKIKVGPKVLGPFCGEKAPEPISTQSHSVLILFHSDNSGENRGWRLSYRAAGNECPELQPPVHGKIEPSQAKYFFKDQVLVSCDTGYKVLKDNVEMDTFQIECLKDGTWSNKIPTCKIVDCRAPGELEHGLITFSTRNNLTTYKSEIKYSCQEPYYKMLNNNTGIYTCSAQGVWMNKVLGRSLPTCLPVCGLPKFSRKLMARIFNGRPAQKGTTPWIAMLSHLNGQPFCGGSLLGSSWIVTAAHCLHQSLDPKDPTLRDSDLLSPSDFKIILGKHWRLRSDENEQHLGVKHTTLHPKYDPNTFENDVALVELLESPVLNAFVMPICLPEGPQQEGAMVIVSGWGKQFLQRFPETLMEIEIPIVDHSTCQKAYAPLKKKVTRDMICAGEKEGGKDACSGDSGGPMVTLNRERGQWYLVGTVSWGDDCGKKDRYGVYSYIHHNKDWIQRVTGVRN

C3b deposition from 1% normal human serum on mannan-coated wells (IC50) [1] [µM]	C3b deposition from 1% normal human serum on mannan-coated wells (IC50) [2] [µM]	Substance
0.027	–	SGMI-1Fc (mature polypeptide fusion comprising SGMI-1, linker #1 and human IgG1-Fc) (Fc fusion)
–	0.3	SGMI-2Fc (mature polypeptide fusion comprising SGMI-2, linker #1 and human IgG1-Fc) (Fc fusion)
